Assay results published in US20230065226A1.

Biological target: mouse chemokine receptors (mouse)
Assay: cell-based or functional assay

B1: (LD78β(C11S)Fv^315)2 vaccibody (protein, part only; not given: IgG3 hinge, CH3, scFv carrier, not shown: another chain or arm of the molecule; a dimerising Fc or GST; large carriers; small tags and cut ends)
chain: APLAADTPTASCFSYTSRQIPQNFIADYFETSSQCSKPSVIFLTKRGRQVCADPSEEWVQKYVSDLELSA
modifications: not fully specified (C-terminus); ends and bridges not checked; also: covalent homodimer via IgG3 hinge disulfides, C-terminal carrier (IgG3 hinge, CH3, scFv315) not in chain
ability to stimulate T cells (proliferation of Id^315-specific Th2 cells with BALB/c splenocytes as APC): 100 fold
